These results are taken from patent US20180327803A1.

Assay [1] has as its target human serum-derived IgG polyclonal antibody (#I4506; Sigma-Aldrich) (human). As to the kind of experiment: scFv-immobilized HiTrap NHS column.
The target of assay [2] is human IgG1 antibody (#I5154; Sigma-Aldrich) (human). As to the kind of experiment: SPR, single cycle kinetics, IgG1 chip.
Assay [3] concerns the target human IgG3 antibody (#I5654; Sigma-Aldrich) (human). As to the kind of experiment: ELISA. Background: ELISA stands for enzyme-linked immunosorbent assay.
The target in assay [4] is human IgG4 antibody (#I4639; Sigma-Aldrich) (human). As to the kind of experiment: ELISA.
Assay [5] concerns the target human IgG1 antibody (#I5154; Sigma-Aldrich) (human). As to the kind of experiment: ELISA.
Assay [6] deals with human serum-derived IgA polyclonal antibody (#I4036; Sigma-Aldrich) (human). As to the kind of experiment: ELISA.
The target of assay [7] is human IgG2 antibody (#I5404; Sigma-Aldrich) (human). As to the kind of experiment: ELISA.
Assay [8] addresses human serum-derived IgA polyclonal antibody (#I4036; Sigma-Aldrich) (human). As to the kind of experiment: SPR, lysate, human IgA chip.

B1: R3-26 rabbit-derived single-chain antibody-His (scFv)
scFv: QEQLVESGGGLVKPGGTLTLTCTVSGIDLSSYAMSWVRQVPGKGLEWIGIIGSGGGTAYANWAKGRFTISKTSSTTVDLKMTSLTTEDTATYFCATDYGIYGYAYGHLWGPGTLVTVTSGGGGSGGGGSGGGGSELVMTQTASPVSAAVGGTVTIKCQASQSISTALAWYQQRPGQPPKLLIYDASTLASGVSSRFKGSGSGTEFTLTISDLECADAATYYCQTYFGSDTDNAFGEGTEVEITGSHHHHHH
With B1, in assay [1], the amount of IgG adsorbed to the column and eluted is 5.3 mg; the percent of supplied IgG adsorbed to the column and eluted was 53%. In assay [2], the Kd was found to be 2.1 nM, the koff was 4.3e-05 s⁻¹ and the kon came to 21000 M⁻¹ s⁻¹.

B2: IgA R3-18 (scFv, not shown: small tags and cut ends)
scFv: QSLEESGGRLVTPGTPLTLTCTVSGIDLSSNAMTWVRQAPGEGLEWIGTISTGGSTYFASWAKGRFTISKTSTTVDLKITSPTTEDTATYFCATRYDSYGYAYNYWFGTLWGPGTLVTVTSGGGGSGGGGSGGGGSELVMTQTAASVSEPVGGTVTIKCQASQNINNELAWYQQKPGQRPKLLIYDASKLASGVPSRFSGSGSGTEFTLTISGMQCDDAATYYCQSTYYDGNYVYAFGGGTEVDVKGS
Consider B2, for which the OD was determined as 2.99 in assay [3]; 3.08 in assay [4]; 3.09 in assay [5]; 3.03 in assay [6]; 3.09 in assay [7]. The molecule further returned a koff in assay [8] of 0.000181 s⁻¹.

B3: IgA R3-1 (scFv, not shown: small tags and cut ends)
scFv: QSVKESGGRLVTPGTPLTLTCTVSGIDLSSNAMSWVRQAPGEGLEWIGTISTVGKTYFASWAKGRFTISKTSTTVDLRITSPTTEDTATYFCATRYDSYGYAYNYWFGTLWGPGTLVTVTSGGGGSGGGGSGGGGSELDLTQTPPSVSGAVGGTVTIKCQASENINSELAWYQQKPGQRPKLLIYDASKLASGVPSRFSGSGSGTEYTLTISGMQCDDAATYYCQSTYYDGNYVYAFGGGTEVDVTRS
Take B3: the OD in assay [3] was 3.02; in assay [4] it was 3.07; in assay [5], 3.09; in assay [6] it was 3; in assay [7], 3.07. In addition, the koff in assay [8] stood at 9.88e-05 s⁻¹.

For orientation: Kd means the constant that tells how readily two partners part at equilibrium. Read a low Kd as tighter binding. Usually koff stands for the rate constant with which the complex falls apart. Higher therefore signals fast dissociation. The kon is the second-order rate constant of association. A lower kon goes with slower complex formation.
